Assay results as given in US20110306550A1.

Target: cellular receptor for the apoE peptide (not named), on cells
Assay: competition binding on cells (250,000 cells per well, 4 C); competitor/tracer biotinylated apoE 133-149, detected with 125I-streptavidin

IC50: 4 µM
B1: COG133 (apoE 133-149 peptide), unlabeled (peptide)
peptide: LRVRLASHLRKLRKRLL
